These results are taken from patent publication US10253076B2, “Peptides and combination of peptides for use in immunotherapy against ovarian cancer and other cancers” (immatics biotechnologies GmbH, priority 2015, dated 2019).

This assay addresses HLA-A*02:01 (Homo sapiens, UniProt P04439, D140Y/D185E/D98H/E176V/E277Q/G131W/G231S/I119V/I121R/I166T/I218V/L300P/L318F/N151K/N90K/P208A/P217A/Q86G/Q94H/R138H/R169H/T345S). The experiment in a line: MHC binding assay (UV-ligand exchange, beta2m ELISA, peptide exchange yield). Conditions: binding of HLA-class I restricted peptides to HLA-A*02:01, ranged by peptide exchange yield (UV-ligand exchange, β2m ELISA). Summed up: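 Readout is a β2m ELISA: stabilized complexes captured on streptavidin, detected with HRP-conjugated anti-β2m and TMB at 450 nm, reporting peptide exchange yield. Complexes come from UV-light cleavage of a conditional ligand in HLA-A*02:01 and replacement by the candidate peptide, samples diluted 100-fold.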
A general note: ELISA stands for enzyme-linked immunosorbent assay.

For the substance “337 (HLLSELEAAPYL; listed as Homo sapiens) [compound 337]”, the Peptide exchange entry is reported as “″++++″ (≥75% = ++++)”. To “238 (YLISFQTHI; listed as Homo sapiens) [compound 238]” belongs “″+++″ (≥50% = +++)”; to “315 (YLQDVVEQA; listed as Homo sapiens) [compound 315]”, “″+++″ (≥50% = +++)”. Next, “165 (SLLDEIRAV; listed as Homo sapiens) [compound 165]”: “″+++″ (≥50% = +++)”; “522 (TLWYRSPEV; listed as Homo sapiens) [compound 522]”: “″++″ (≥20% = ++)”.

Consider “352 (SLLELLHIYV; listed as Homo sapiens) [compound 352]”, for which the Peptide exchange result is “″+++″ (≥50% = +++)”. To “519 (GLLHLTLLL; listed as Homo sapiens) [compound 519]” belongs “″+++″ (≥50% = +++)”; to “362 (TLYGLSVLL; listed as Homo sapiens) [compound 362]”, “″+++″ (≥50% = +++)”.

On to “306 (ALVNVQIPL; listed as Homo sapiens) [compound 306]”, for which the Peptide exchange entry is reported as “″+++″ (≥50% = +++)”. To “295 (VLDRESPNV; listed as Homo sapiens) [compound 295]” belongs “″+++″ (≥50% = +++)”; to “387 (ALFQATAEV; listed as Homo sapiens) [compound 387]”, “″++++″ (≥75% = ++++)”.

For the substance “240 (ILLEQAFYL; listed as Homo sapiens) [compound 240]”, the Peptide exchange result is “″+++″ (≥50% = +++)”.

For the substance “450 (FMIDASVHPTL; listed as Homo sapiens) [compound 450]”, the Peptide exchange result is listed as “″+++″ (≥50% = +++)”. To “152 (ILFEDIFDV; listed as Homo sapiens) [compound 152]” belongs “″+++″ (≥50% = +++)”. Next, “191 (LLQEGQALEYV; listed as Homo sapiens) [compound 191]”: “″++″ (≥20% = ++)”; “24 (SLSDGLEEV; listed as Homo sapiens) [compound 24]”: “″++″ (≥20% = ++)”. To “228 (AMQEYIAVV; listed as Homo sapiens) [compound 228]” belongs “″++″ (≥20% = ++)”. Turning to “49 (YLPAVFEEV; listed as Homo sapiens) [compound 49]”, the Peptide exchange result was “″+++″ (≥50% = +++)”. For “83 (ILAPTVMMI; listed as Homo sapiens) [compound 83]”, the Peptide exchange result is on record as “″+++″ (≥50% = +++)”.

For the substance “562 (YLEELPEKLKL; listed as Homo sapiens) [compound 562]”, the Peptide exchange result is recorded as “″+++″ (≥50% = +++)”. To “158 (KLFDVDEDGYI; listed as Homo sapiens) [compound 158]” belongs “″+++″ (≥50% = +++)”.

Take “333 (FLPDANSSV; listed as Homo sapiens) [compound 333]”: the Peptide exchange entry is on record as “″++″ (≥20% = ++)”. To “580 (LLMENAERV; listed as Homo sapiens) [compound 580]” belongs “″++″ (≥20% = ++)”.

In the case of “442 (GLLGGGGVLGV; listed as Homo sapiens) [compound 442]”, the Peptide exchange result was “″+++″ (≥50% = +++)”. Next, “526 (RLAEVGQYEQV; listed as Homo sapiens) [compound 526]”: “″++″ (≥20% = ++)”. Next, “120 (ALLGIPLTLV; listed as Homo sapiens) [compound 120]”: “″+++″ (≥50% = +++)”; “195 (GLFADLLPRL; listed as Homo sapiens) [compound 195]”: “″+++″ (≥50% = +++)”; “284 (ILLSQTTGV; listed as Homo sapiens) [compound 284]”: “″+++″ (≥50% = +++)”. To “224 (TLIDAQWVL; listed as Homo sapiens) [compound 224]” belongs “″+++″ (≥50% = +++)”; to “347 (SLFKHDPAAWEA; listed as Homo sapiens) [compound 347]”, “″++++″ (≥75% = ++++)”. With “232 (ALLEAQDVELYL; listed as Homo sapiens) [compound 232]”, the Peptide exchange entry is on record as “″++″ (≥20% = ++)”. Next, “241 (SLVEVNPAYSV; listed as Homo sapiens) [compound 241]”: “″+++″ (≥50% = +++)”. As for “91 (IMQDFPAEIFL; listed as Homo sapiens) [compound 91]”, the Peptide exchange result is given as “″++++″ (≥75% = ++++)”.

Consider “551 (KLYESLLPFA; listed as Homo sapiens) [compound 551]”, for which the Peptide exchange result was “″+++″ (≥50% = +++)”. To “128 (YLFDDPLSAV; listed as Homo sapiens) [compound 128]” belongs “″++″ (≥20% = ++)”.

For the substance “455 (SLLKEPQKVQL; listed as Homo sapiens) [compound 455]”, the Peptide exchange entry was “″++″ (≥20% = ++)”. To “547 (TLDITPHTV; listed as Homo sapiens) [compound 547]” belongs “″+++″ (≥50% = +++)”; to “457 (SLLPGNLVEKV; listed as Homo sapiens) [compound 457]”, “″+++″ (≥50% = +++)”; to “326 (FLPEALDFV; listed as Homo sapiens) [compound 326]”, “″+++″ (≥50% = +++)”. To “180 (FQIDPHSGLVTV; listed as Homo sapiens) [compound 180]” belongs “″++″ (≥20% = ++)”; to “617 (ALMYESEKVGV; listed as Homo sapiens) [compound 617]”, “″+++″ (≥50% = +++)”.

“262 (LLWGDLIWL; listed as Homo sapiens) [compound 262]”: the Peptide exchange entry was “″+++″ (≥50% = +++)”. Next, “267 (ALQDFLLSV; listed as Homo sapiens) [compound 267]”: “″+++″ (≥50% = +++)”; “310 (FLVDTPLARA; listed as Homo sapiens) [compound 310]”: “″++++″ (≥75% = ++++)”.

As to “436 (HLAEVSAEV; listed as Homo sapiens) [compound 436]”, the Peptide exchange entry is recorded as “″+++″ (≥50% = +++)”.

On to “161 (ALLEGVNTV; listed as Homo sapiens) [compound 161]”, for which the Peptide exchange result is “″+++″ (≥50% = +++)”. Next, “202 (ALLDQQGSRWTL; listed as Homo sapiens) [compound 202]”: “″+++″ (≥50% = +++)”. Next, “372 (TMLLNIPLV; listed as Homo sapiens) [compound 372]”: “″++″ (≥20% = ++)”; “285 (QLLHVGVTV; listed as Homo sapiens) [compound 285]”: “″+++″ (≥50% = +++)”; “509 (FLFDTKPLIV; listed as Homo sapiens) [compound 509]”: “″+++″ (≥50% = +++)”. To “145 (FLATSGTLAGI; listed as Homo sapiens) [compound 145]” belongs “″++″ (≥20% = ++)”; to “597 (KLLEGQVIQL; listed as Homo sapiens) [compound 597]”, “″+++″ (≥50% = +++)”. As to “101 (ILVGGGALATV; listed as Homo sapiens) [compound 101]”, the Peptide exchange entry is given as “″+++″ (≥50% = +++)”. With “66 (FLDENIGGVAV; listed as Homo sapiens) [compound 66]”, the Peptide exchange result is given as “″+++″ (≥50% = +++)”. In the case of “390 (ALFMKQIYL; listed as Homo sapiens) [compound 390]”, the Peptide exchange entry is “″+++″ (≥50% = +++)”. To “441 (ALLENPKMEL; listed as Homo sapiens) [compound 441]” belongs “″+++″ (≥50% = +++)”; to “70 (GLLDYPVGV; listed as Homo sapiens) [compound 70]”, “″+++″ (≥50% = +++)”. To “468 (YLRSVGDGETV; listed as Homo sapiens) [compound 468]” belongs “″+++″ (≥50% = +++)”; to “298 (VMITKLVEV; listed as Homo sapiens) [compound 298]”, “″+++″ (≥50% = +++)”; to “90 (TLLQIIETV; listed as Homo sapiens) [compound 90]”, “″+++″ (≥50% = +++)”. To “407 (YLMDLINFL; listed as Homo sapiens) [compound 407]” belongs “″+++″ (≥50% = +++)”; to “67 (TLLAEALVTV; listed as Homo sapiens) [compound 67]”, “″+++″ (≥50% = +++)”. In the case of “412 (YLDDLNEGVYI; listed as Homo sapiens) [compound 412]”, the Peptide exchange entry is “″++″ (≥20% = ++)”. Turning to “134 (YLQELIFSV; listed as Homo sapiens) [compound 134]”, the Peptide exchange result is listed as “″+++″ (≥50% = +++)”. Consider “521 (MLLTKLPTI; listed as Homo sapiens) [compound 521]”, for which the Peptide exchange entry was “″+++″ (≥50% = +++)”.

As to “34 (ILVEADSLWVV; listed as Homo sapiens) [compound 34]”, the Peptide exchange result is on record as “″+++″ (≥50% = +++)”. Next, “16 (VLFQGQASL; listed as Homo sapiens) [compound 16]”: “″+++″ (≥50% = +++)”. To “130 (FLWNGEDSALL; listed as Homo sapiens) [compound 130]” belongs “″+++″ (≥50% = +++)”; to “350 (ALLDVTHSELTV; listed as Homo sapiens) [compound 350]”, “″+++″ (≥50% = +++)”. To “61 (FLQGYQLHL; listed as Homo sapiens) [compound 61]” belongs “″++++″ (≥75% = ++++)”.
